Patent US6132730
Where “and” joins values, the source holds several entries; their conditions need not be identical. Equal values may be shown once. Read-outs that look alike come from different tables or passages of the source.

Key:
[1] = target: truncated Tissue Factor tTF219 (extracellular domain of the mature Tissue Factor protein, amino acids 1-219) (human)
H6-tTF221-cys-C' (human) [2] = target: H6-tTF221-cys-C' (human)
[3] = target: IgG-H6-N'-cys-tTF219 (human)
[4] = target: truncated Tissue Factor tTF219 (extracellular domain of the mature Tissue Factor protein, amino acids 1-219) (human); remark: listed apart in the source
[5] = target: truncated Tissue Factor tTF219 (extracellular domain of the mature Tissue Factor protein, amino acids 1-219) (human); remark: listed apart in the source
[6] = target: I-A^d (MHC Class II antigen) on A20 mouse B-lymphoma cells (mouse) (UniProt P04228)
[7] = target: truncated Tissue Factor tTF219 (extracellular domain of the mature Tissue Factor protein, amino acids 1-219) (human); remark: listed apart in the source
H6-tTF221-cys-C' (human) [8] = target: H6-tTF221-cys-C' (human); remark: listed apart in the source
[9] = target: H6-N'-cys-tTF219 dimer (human)
[10] = target: truncated Tissue Factor tTF219 (extracellular domain of the mature Tissue Factor protein, amino acids 1-219) (human); remark: listed apart in the source

B21-2/10H10 bispecific antibody (Fab' arm of B21-2 linked to Fab' arm of 10H10)
tTF concentration at which plasma coagulated in 50 seconds (A20 cells coated with B21-2/10H10) [1]: 500 pM | tTF concentration at which plasma coagulated in 50 seconds (A20 cells coated with B21-2/10H10) (tTF221-cys-C' (human)): 500 pM | tTF concentration at which plasma coagulated in 50 seconds (A20 cells coated with B21-2/10H10) (H6-tTF221-cys-C' (human) [2]): 500 pM | tTF concentration at which plasma coagulated in 50 seconds (A20 cells coated with B21-2/10H10) (tTF220-cys-C' (human)): 500 pM | tTF concentration at which plasma coagulated in 50 seconds (A20 cells coated with B21-2/10H10) (H6-tTF220-cys-C' (human)): 500 pM | tTF concentration at which plasma coagulated in 50 seconds (A20 cells coated with B21-2/10H10) [3]: 5 nM | tTF concentration at which plasma coagulated in 50 seconds (A20 cells coated with B21-2/10H10) [4]: 1 nM | clotting time of citrated mouse plasma on A20 cells [5]: 36 s | clotting time of citrated mouse plasma on A20 cells [6]: 36 s | tTF concentration at which plasma coagulated in 50 seconds (A20 cells coated with B21-2/10H10) [7]: 100 pM | tTF concentration at which plasma coagulated in 50 seconds (A20 cells coated with B21-2/10H10) (H6-tTF221-cys-C' (human) [8]): 1 nM | tTF concentration at which plasma coagulated in 50 seconds (A20 cells coated with B21-2/10H10) [9]: 100 pM and 200 pM | tTF concentration at which plasma coagulated in 50 seconds (A20 cells coated with B21-2/10H10) (H6-N'-cys-tTF219 (human)): 3 nM | tTF concentration at which plasma coagulated in 50 seconds (A20 cells coated with B21-2/10H10) (H6-tTF219-cys-C' (human)): 3 nM | tTF concentration at which plasma coagulated in 50 seconds (A20 cells coated with B21-2/10H10) [10]: 3 nM
